The text below walks through data of PMC4485320.

The target of assay [1] is E. coli thioredoxin reductase (Escherichia coli) (UniProt P0A9P4).
The target is the same in assay [2]. The source holds these as a separate data set.

Sequence of UniProt P0A9P4 (P0A9P4 whole entry): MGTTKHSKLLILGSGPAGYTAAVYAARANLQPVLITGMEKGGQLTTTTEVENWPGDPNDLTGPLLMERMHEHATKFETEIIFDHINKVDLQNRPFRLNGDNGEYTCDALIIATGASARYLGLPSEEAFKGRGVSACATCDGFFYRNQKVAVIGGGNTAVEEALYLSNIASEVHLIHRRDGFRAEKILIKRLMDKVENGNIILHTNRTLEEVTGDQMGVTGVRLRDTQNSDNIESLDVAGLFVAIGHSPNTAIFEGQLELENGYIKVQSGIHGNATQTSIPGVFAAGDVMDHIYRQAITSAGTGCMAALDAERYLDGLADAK

For “Escherichia coli thioredoxin, wild type (from UniProt P0AA25 1-109) (natural protein)”, the kcat of the reduction of the Trx variant by TrxR (Michaelis-Menten kinetics, DTNB/NADPH assay) in assay [1] was determined as 10 s⁻¹. Moreover, in assay [2], the kcat/KM of the reduction of Trx by TrxR was above 1e+06 M⁻¹ s⁻¹.
